According to US20230212319A1, “NOVEL ANTIGEN BINDING DOMAINS AND SYNTHETIC ANTIGEN RECEPTORS INCORPORATING THE SAME” (University of Southern California, priority 2020, published 2023):

Legend:
RAJI-CD19-KO cells = assay: JNG assay, co-culture with RAJI-CD19-KO cells; type: cell-based; settings: co-culture with Raji-CD19-KO
Description: Cellular supernatant is collected and assayed for the induction of cytokines (e.g., IL2).
JNG (Jurkat cells expressing EGFP under an NFAT promoter) were infected with lentiviral vectors encoding different single chain and multi-chain SARs by spinfection in the presence of 8 µg/ml of Polybrene® (Sigma, Catalog no. H9268). The Jurkat-NFAT-GFP cells are engineered in such a way that the IL-2 promoter, which carries NFAT binding sites, is cloned upstream of the GFP gene. These cells have been used to study signaling via TCR and CAR. The different SARs were stably expressed in Jurkat NFAT-GFP cells by lentiviral mediated gene transfer, followed by selection with puromycin or blasticidin. No drug selection was used in case the construct lacked an antibiotic resistance gene. The SAR-expressing Jurkat-NFAT-GFP cells were cocultured with the target cells at E:T ratio of approximately 1:2 for approximately 4 hours to 18 hours. When the interaction between SIRs and their target antigen results in activation of the NFAT pathway, GFP expression is induced. […] GFP expression was monitored by FACS analysis. The Jurkat-NFAT-GFP (parental) cells were used as control. The structure of different constructs can be determined based on their names. […] The sequence of the other constructs in the table can be similarly determined from their names and by referring to the different Tables of this disclosure that provide the names and SEQ ID NO of the different modules. Alternatively, the composition and modular architecture of the different SAR constructs can be determined from their sequences by bioinformatics tools, including using nucleic acid and amino acids homology searches. A SAR is considered positive in the assay in case the SAR expressing Jurkat-NFAT-GFP cells show greater % GFP positive cells when cultured with the target cell line as compared to parental Jurkat-NFAT-GFP cells. […] In general, the number +/-, +, 2+, 3+, 4+, 5+ refer to approximately 5%, 10%, 20%, 30%, 40% and 50% GFP positive cells. The % of GFP induction in the above assay is dependent not only the relative strength of the SAR but also, among other factors, on the relative level of expression of the SAR in the JNG cells and the relative level of expression of the target antigen in the target cell line. To control for the difference in gene transduction efficiency of the different SAR constructs, the experiment was conducted with JNG cells transduced with SAR constructs co-expressing a drug resistance gene (e.g., puromycin or PAC) followed by drug selection to generate a stable population of SAR-expressing cells. It is to be noted that the drug resistance gene (e.g., PAC) in the SAR constructs is optional and in vivo studies were conducted with SAR constructs lacking the PAC gene.

RAJI cells = assay: JNG assay, co-culture with RAJI cells; type: cell-based; settings: JNG cells expressing construct, co-culture with Raji
Procedure, shortened: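 Jurkat NFAT-GFP (JNG) cells stably transduced with SARs by lentivirus, with drug selection where the construct carried a resistance gene, then co-cultured with target cells at E:T ~1:2 for ~4–18 h. % GFP-positive cells measured by FACS against parental JNG; +/- to 5+ correspond to ~5–50% GFP-positive.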

B1: 22112 (protein)
chain: MALPVTALLLPLALLLHAARPDIQMTQSPSSLSASVGDRVTITCKASDHINNWLAWYQQKPGQAPKLLIYGATTLETGVPSRFSGSGSGTDYTLTISSLQPEDFATYYCQQSWNTPWTFGQGTKLEIKRLEDLKNVFPPEVAVFEPSEAEISHTQKATLVCLATGFYPDHVELSWWVNGKEVHSGVCTDPQPLKEQPALNDSRYCLSSRLRVSATFWQNPRNHFRCQVQFYGLSENDEWTQDRAKPVTQIVSAEAWGRADCGFTSESYQQGVLSATILYEILLGKATLYAVLVSALVLMAMVKRKDSRGRAKRSGSGATNFSLLKQAGDVEENPGPTSATMDWIWRILFLVGAATGAHSGPEVQLVESGGGLVQAGGSLRLSCAASGRTFTMGWFRQAPGKEREFVAAISLSPTLAYYADSVKGRFTISRDNAKNTVVLQMNSLKPEDTALYYCAADRKSVMSIRPDYWGQGTQVTVSSGSGGGGSGGGGSGGGGSFEQVQLQQPGAELVKPGASVKMSCKASGYAFSSYWINWMKQKPGQGLEWIGQIYPGDGDTNYNGKFKGRATLTADTSSSTAYMQLSSLTSEDSAVYFCARSITTVVGCAMDYWGQGTSVTVSSTRIQNPDPAVYQLRDSKSSDKSVCLFTDFDSQTNVSQSKDSDVYITDKCVLDMRSMDFKSNSAVAWSNKSDFACANAFNNSIIPEDTFFPSPESSCDVKLVEKSFETDTNLNFQNLSVIGFRILLLKVAGFNLLMTLRLWSSRAKRSGSGVKQTLNFDLLKLAGDVESNPGPSRGHMTEYKPTVRLATRDDVPRAVRTLAAAFADYPATRHTVDPDRHIERVTELQELFLTRVGLDIGKVWVADDGAAVAVWTTPESVEAGAVFAEIGPRMAELSGSRLAAQQQMEGLLAPHRPKEPAWFLATVGVSPDHQGKGLGSAVVLPGVEAAERAGVPAFLETSAPRNLPFYERLGFTVTADVEVPEGPRTWCMTRKPGA
For B1, the “NFAT-GFP ASSAY: Raji-CD19-KO” value (RAJI-CD19-KO cells) was 5+ (refer to approximately 5%, 10%, 20%, 30%, 40% and 50% GFP positive cells).

B2: 22113 (protein)
chain: MALPVTALLLPLALLLHAARPDIQMTQSPSSLSASVGDRVTITCKASDHINNWLAWYQQKPGQAPKLLIYGATTLETGVPSRFSGSGSGTDYTLTISSLQPEDFATYYCQQSWNTPWTFGQGTKLEIKRLEDLKNVFPPEVAVFEPSKAEIAHTQKATLVCLATGFYPDHVELSWWVNGKEVHSGVCTDPQPLKEQPALNDSRYCLSSRLRVSATFWQNPRNHFRCQVQFYGLSENDEWTQDRAKPVTQIVSAEAWGRADCGITSASYHQGVLSATILYEILLGKATLYAVLVSALVLMAMVKRKDSRGRAKRSGSGATNFSLLKQAGDVEENPGPTSMDWIWRILFLVGAATGAHSGPQVQLQESGGGLAQAGGSLRLSCAASGRTFSMGWFRQAPGKEREFVAAITYSGGSPYYASSVRGRFTISRDNAKNTVYLQMNSLKPEDTAVYYCAANPTYGSDWNAENWGQGTQVTVSSGSGGGGSGGGGSGGGGSFEQVQLQQPGAELVKPGASVKMSCKASGYAFSSYWINWMKQKPGQGLEWIGQIYPGDGDTNYNGKFKGRATLTADTSSSTAYMQLSSLTSEDSAVYFCARSITTVVGCAMDYWGQGTSVTVSSTRIQNPDPAVYQLRDSKSSDKSVCLFTDFDSQTNVSQSKDSDVYITDKCVLDMRSMDFKSNSAVAWSNKSDFACANAFNNSIIPEDTFFPSSDVPCDVKLVEKSFETDTNLNFQNLSVIGFRILLLKVAGFNLLMTLRLWSSRAKRSGSGVKQTLNFDLLKLAGDVESNPGPSRGHMTEYKPTVRLATRDDVPRAVRTLAAAFADYPATRHTVDPDRHIERVTELQELFLTRVGLDIGKVWVADDGAAVAVWTTPESVEAGAVFAEIGPRMAELSGSRLAAQQQMEGLLAPHRPKEPAWFLATVGVSPDHQGKGLGSAVVLPGVEAAERAGVPAFLETSAPRNLPFYERLGFTVTADVEVPEGPRTWCMTRKPGA
For B2, the “NFAT-GFP ASSAY: Raji” value (RAJI cells) was 5+ (refer to approximately 5%, 10%, 20%, 30%, 40% and 50% GFP positive cells) and the “NFAT-GFP ASSAY: Raji-CD19-KO” value (RAJI-CD19-KO cells) was 4+ (refer to approximately 5%, 10%, 20%, 30%, 40% and 50% GFP positive cells).

B3: 22120 (protein)
chain: MALPVTALLLPLALLLHAARPDIQMTQSPSSLSASVGDRVTITCKASDHINNWLAWYQQKPGQAPKLLIYGATTLETGVPSRFSGSGSGTDYTLTISSLQPEDFATYYCQQSWNTPWTFGQGTKLEIKRLEGQPKANPTVTLFPPSSEELQANKATLVCLISDFYPGAVTVAWKADGSPVKAGVETTKPSKQSNNKYAASSYLSLTPEQWKSHRSYSCQVTHEGSTVEKTVAPTECSGRADCGFTSESYQQGVLSATILYEILLGKATLYAVLVSALVLMAMVKRKDSRGRAKRSGSGATNFSLLKQAGDVEENPGPTSATMDWIWRILFLVGAATGAHSGPQVQLQESGGGLAQAGGSLRLSCAASGRTFSMGWFRQAPGKEREFVAAITYSGGSPYYASSVRGRFTISRDNAKNTVYLQMNSLKPEDTAVYYCAANPTYGSDWNAENWGQGTQVTVSSGSGGGGSGGGGSGGGGSFEQVQLQQPGAELVKPGASVKMSCKASGYAFSSYWINWMKQKPGQGLEWIGQIYPGDGDTNYNGKFKGRATLTADTSSSTAYMQLSSLTSEDSAVYFCARSITTVVGCAMDYWGQGTSVTVSSTRASTKGPSVFPLAPSSKSTSGGTAALGCLVKDYFPEPVTVSWNSGALTSGVHTFPAVLQSSGLYSLSSVVTVPSSSLGTQTYICNVNHKPSNTKVDKRVEPKSCIPEDTFFPSPESSCDVKLVEKSFETDTNLNFQNLSVIGFRILLLKVAGFNLLMTLRLWSSRAKRSGSGVKQTLNFDLLKLAGDVESNPGPSRGHMTEYKPTVRLATRDDVPRAVRTLAAAFADYPATRHTVDPDRHIERVTELQELFLTRVGLDIGKVWVADDGAAVAVWTTPESVEAGAVFAEIGPRMAELSGSRLAAQQQMEGLLAPHRPKEPAWFLATVGVSPDHQGKGLGSAVVLPGVEAAERAGVPAFLETSAPRNLPFYERLGFTVTADVEVPEGPRTWCMTRKPGA
In the case of B3, the “NFAT-GFP ASSAY: Raji” value (RAJI cells) is reported as 4+ (refer to approximately 5%, 10%, 20%, 30%, 40% and 50% GFP positive cells) and the “NFAT-GFP ASSAY: Raji-CD19-KO” value (RAJI-CD19-KO cells) is reported as 3+ (refer to approximately 5%, 10%, 20%, 30%, 40% and 50% GFP positive cells).

B4: 22133 (protein)
chain: MALPVTALLLPLALLLHAARPEVQLVESGGGLVQPGGSLRLSCAASGFSFSDFWMSWVRQAPGKGLEWVATISQAGSEKDYVDSVKGRFTISRDNAKKSLYLQMNSLRAEDTAVYYCASGVYSFDYRGQGTLVTVSSGTGGGGSGGGGSGGGGSEFDIQMTQSPSSLSASVGDRVTITCKASDHINNWLAWYQQKPGQAPKLLIYGATTLETGVPSRFSGSGSGTDYTLTISSLQPEDFATYYCQQSWNTPWTFGQGTKLEIKRLEDLKNVFPPEVAVFEPSKAEIAHTQKATLVCLATGFYPDHVELSWWVNGKEVHSGVCTDPQPLKEQPALNDSRYCLSSRLRVSATFWQNPRNHFRCQVQFYGLSENDEWTQDRAKPVTQIVSAEAWGRADCGITSASYHQGVLSATILYEILLGKATLYAVLVSALVLMAMVKRKDSRGRAKRSGSGATNFSLLKQAGDVEENPGPTSATMDWIWRILFLVGAATGAHSGPQVQLQESGGGLAQAGGSLRLSCAASGRTFSMGWFRQAPGKEREFVAAITYSGGSPYYASSVRGRFTISRDNAKNTVYLQMNSLKPEDTAVYYCAANPTYGSDWNAENWGQGTQVTVSSGSGGGGSGGGGSGGGGSFEQVQLQQPGAELVKPGASVKMSCKASGYAFSSYWINWMKQKPGQGLEWIGQIYPGDGDTNYNGKFKGRATLTADTSSSTAYMQLSSLTSEDSAVYFCARSITTVVGCAMDYWGQGTSVTVSSTRIQNPDPAVYQLRDSKSSDKSVCLFTDFDSQTNVSQSKDSDVYITDKCVLDMRSMDFKSNSAVAWSNKSDFACANAFNNSIIPEDTFFPSSDVPCDVKLVEKSFETDTNLNFQNLSVIGFRILLLKVAGFNLLMTLRLWSSRAKRSGSGVKQTLNFDLLKLAGDVESNPGPSRGHMTEYKPTVRLATRDDVPRAVRTLAAAFADYPATRHTVDPDRHIERVTELQELFLTRVGLDIGKVWVADDGAAVAVWTTPESVEAGAVFAEIGPRMAELSGSRLAAQQQMEGLLAPHRPKEPAWFLATVGVSPDHQGKGLGSAVVLPGVEAAERAGVPAFLETSAPRNLPFYERLGFTVTADVEVPEGPRTWCMTRKPGA
In the case of B4, the “NFAT-GFP ASSAY: Raji-CD19-KO” value (RAJI-CD19-KO cells) is reported as 5+ (refer to approximately 5%, 10%, 20%, 30%, 40% and 50% GFP positive cells).
